Laboratory results published in PMC7319273 (Science (New York, N.y.), 2020).

Key:
Conditions in all cases: both partners purified
[1] = target: T1, SARS-CoV-2 Spike protein receptor binding domain (RBD) (Severe acute respiratory syndrome …, UniProt P0DTC2); assay: ELISA
[2] = target: SARS-CoV-2 Spike protein S1 (SARS-CoV-2, Wuhan-Hu-1 (P0DTC2), UniProt P0DTC2); assay: BLI
[3] = target: T1, SARS-CoV-2 Spike protein receptor …; assay: BLI
[4] = target: SARS-CoV-2 Spike protein S2 (SARS-CoV-2, Wuhan-Hu-1 (P0DTC2), UniProt P0DTC2); assay: BLI

| Binder | Kd [2] [nM] | Kd [4] [nM] | further results |
| --- | --- | --- | --- |
| 4A8 (human monoclonal antibody) (antibody, V domains shown) VH: EVQLVESGAEVKKPGASVKVSCKVSGYTLTELSMHWVRQAPGKGLEWMGGFDPEDGETMYAQKFQGRVTMTEDTSTDTAYMELSSLRSEDTAVYYCATSTAVAGTPDLFDYYYGMDVWGQGTTVTVSS VL: EIVMTQSPLSSPVTLGQPASISCRSSQSLVHSDGNTYLSWLQQRPGQPPRLLIYKISNRFSGVPDRFSGSGAGTDFTLKISRVEAEDVGVYYCTQATQFPYTFGQGTKVDIK | 92.7 |  | binding result [1]: no binding |
| 2M-10B11 (human monoclonal antibody) (antibody, V domains shown, ELISA group 2B; also called mAb 2M-10B11) VH: EVQLVESGGGLVQPGGSLRLSCAASGFTVSSNYMSWVRQAPGKGLEWVSVIYSGGSTYYADSVKGRFTISRDNSKNTLYLQMNSLRAEDTAVYYCARATWLRGVMDVWGQGTTVTVSS VL: QSALTQPHSVSESPGKTVTISCTGSSGSIASNYVQWYQQRPGSAPTTVIYEDNQRPSGVPDRFSGSIDSSSNSASLTISGLKTEDEADYYCQSYDSSNHWVFGGGTKLTVL |  |  | Kd [3]: 24.3 nM |
| 1M-1D2 (human monoclonal antibody) (antibody, V domains shown) VH: QVQLVESGGGLVQPGGSLRLSCAASGFTFSSYAMHWVRQAPGKGLEYVSAISGNGGSTYYAKSVKGRFTISRDNSKNTLYLQMGSLRAEDMAVYYCARGAEYYDFWSGYYSAYFDYWGQGTLVTVSS VL: QAVVTQPPSASGTPGQRVTISCSGSSSNIGSNYVYWYQQLPGTAPKLLIYNNNQRPSGVPDRFSGSKSGTSASLAISGLRSEDEADYYCAAWDDSLIYVLFGGGTKLTVL | 108 |  |  |
| 0304-3H3 (human monoclonal antibody) (antibody, V domains shown, also called mAb 0304-3H3) VH: EVQLVESGPGLVKPSETLSLTCTASGGSISTYYWSWIRQPPGKGLEWIGYIYYSGSTNYNPSLKSRVTISVDTSKNQFSLKLSSVTAADTAVYYCARDRIAPVGKFFGWYFDLWGRGTLVTVSS VL: not shown |  | 4.52 |  |
| 9A1 (human monoclonal antibody) (antibody, V domains shown, also called mAb 9A1) VH: EVQLLESGGGVVQPGRSLRLSCVVSGFTFNNYGMHWVRQAPGKGLEWVAVISYEGSVKYYGDHVDGRFTISRDPFKNTLYLHMNNLRPDDTAVYYCAKVSAIFWLGQGLSPIDVWGQGTTVTVSS VL: DIVMTQSPATLSASPGERVTLSCRASQNIRNNLAWYQQKPGQAPRLLIHGASTRAAGAPARFSGSGSDTQFTLTVSSLQSEDFAVYYCHQYSKWPVTFGGGTKVDIK |  | < 0.001 |  |
